Experimental data reported in the supplement of paper PMC7125110.
± gives the standard error. Fewer inactive variants are shown than the library holds.

B1: glmS ribozyme (parent)
chain: AUAAAAGCGCCAGAACUACAGAAAUGUAGUUGACGAGGAGGAGGUUUAUCGAAUUUUCGGCGGAUGCCUCCAAA

Variants of: B1
Test: self-cleavage kobs at 10000 uM GlcN6P; higher = faster cleavage; RNA array
Settings: with glucosamine-6-phosphate
Summary of the method: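 kobs was derived by fitting per-tile medians to one- or two-exponential decays after normalising signals to baseline and to non-cleaving reference variants. Those signals came from barcoded ribozyme variants transcribed in situ by E. coli RNA polymerase on sequenced MiSeq chips, followed through a hybridised Cy3 probe at 37 °C and imaged over ~14 h. Glucosamine-6-phosphate (40 μM to 10 mM) in HEPES/KCl/Mg(OAc)2 buffer was flowed in. Weighted Michaelis–Menten fits across concentrations then gave kcat and KM.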

| Variant | self-cleavage kobs at 10000 uM GlcN6P [s⁻¹] |
| --- | --- |
| AUAAAAGCGCCAGUACUACAGAAAUGUAGUUGACGAGGAGGAGGUUUACCGAAUUUUCGGCGGAUGCCUACAAA | < 1e-05 |
| AUAAAAGCGCCAGAACUACAGAAAUGUAGUUGACGAAGAGGAGGUUUAUCGGAUUUUCGGCGGAUGUCUCCAAA | 5.39e-05 ± 2.2e-05 |
| AUAAAAGCGCGAGAACUACAGAAAUGUAGUUUACGAGGAGUAUGUUUAUCGCAUUUUCGGCGGAUGACACCAAA | < 1e-05 |
| AUAAAAGCGCCAUAACUACAGAAAUGUAGUUGACGAGGAUGAGGUUUAUCGAAUUUUCGGUGGAUGCUUCCAAA | < 1e-05 |
| AUAAAAGCGCCAAAACUACAGAAAUGUAGUUGACGAGGAGGAGGUUUAUCGAAUUUUCGGCGGAUGCCUCAAAA | 0.000168 ± 3.3e-05 |
| AUAAAAUCGCCAGUACUACAGAAAUGUACUUGACGAGGAGGAGGUUUAUCGAAUUUUCGGCGGAUGCCUCCAAA | < 1e-05 |
| AUAAACGUGCCAGAACUACAGAAAUGUAGUUGACGCUGAGGAGGUUUAUCGAAUUUUCGGCGGAUGCCUCCAAA | < 1e-05 |
| AUAAAAGCGCCAAAACUACAGAAAUGUAGUUGACGAGGAGGCGGUUUAUCGAAUUUUCGCCGGAUGCCUCCAAA | < 1e-05 |
| AUAAAAGCGCCAGAACUACAGAAAUGUAGUUGACGAGGCGGACGUUUAUAGAAUUUUCGGCGGAUGCCUCCAAA | < 1e-05 |
| AUAAAAGCGCCCGAAGUACAGAAAUGUAGUUGACGAAGAGGAGGUUUAUCGAAUUUUCGGCGGAUGACUCUAAA | < 1e-05 |
| AUAAAAGCGCCAGUACUACAGAAAUGUAGUUGACGAGGAGGAGGUUUAUCAAAUUUCCGGCGGAUGCCUCCAAA | < 1e-05 |
| AUAAAAGCGUCAGAACUACAGAAAUGUAGUUGACGAGGAGGAGGUUUAUCGAAUUUUCGUCGGUUGCCUCCAAA | < 1e-05 |
| AUAAAAGCGCGAGAACUACAGAAAUGUAGUUUACGAGGCGGAGGUUUAUCGAAUUUUCGGCGGAUGCCUCCAAA | < 1e-05 |
| AUAAAAGCAGCAGAACUACAGAAAUGUAGUUGACGAGGAGGAGGUUUAUCGAAUUUUCGGCGGAUGCCGCCAAA | 0.000596 ± 0.00021 |
| AUAAAAGCGCCAGAACUACAGAAAUGUAGUAGACGAGGAGGAGGUGUAUCGAAUUGUCGGCGGAUGCCUCCAAA | 0.00127 ± 0.00022 |
| AUAAAGGCGCCAGAACUACAGAAAUGUAGUUGACGAGGAGGUGGUUUAUCGAAUUUUCUGCGGAUGCCUCCAAA | < 1e-05 |
| AUAAAACCGCCAGAACUACAGAAAUGUAGUUGACGAGGAGGGAGUUUAUCGAAUUUUCGGCGGAUGCCUCCAAA | < 1e-05 |
| AUAAAAGCGCCAGAACUACAGAAAUGUAGUUGACGAGUGGGCGGUUUUUCGAAUUUUCGGCGGAUGCCUCCAAA | < 1e-05 |
| AUAAAAGCGCCAGAACUACAGAAAUGUAGUUGACGAGUAGGAGGUUUACCGAAUUUUCGGCGAAUGCCUCCAAA | < 1e-05 |

| Variant | self-cleavage kobs at 10000 uM GlcN6P [s⁻¹] |
| --- | --- |
| AUAAAAGCGCCAGAACUACAGAAAUGUAGUUGAUGAGAAGGAGGUUUAUCGAAUUUUCGGCGGAUGCCUGCAAA | 3.44e-05 ± 1.7e-05 |
| AUAAAUGCACCAGAACUACAGAAAUGUAGUUGACGAGGAGGACGUUUAUCGACUUUUCGGCGGAUGCCUGCAAA | < 1e-05 |
| AUAAAAGCGCCAGAACUACAGAAAUGUAGUUGACGGGGAGGAGGUUUCUCGAAUUUUCGGCGGAUGCAUCCAAA | < 1e-05 |
| AUAAAAGCGCCAGAACUACAGAAAUGUAGUUGACGAGGAGGAGGUUUGUCGAAUUUUCGGCGGAUACCUCCAAA | 2.4e-05 ± 1.2e-05 |
| AUAAAAGCGCCAGAACUACAGAACUGUACUUGACGAGGAGGAGGUUUAUCGAAUUUUCGGCGGAUGCCUCCAAA | 0.00129 ± 0.00026 |
| AUAAAAGCGCCAGAACUACAGAAAUGUAGUUGACGAGGAGGAGGUUUAUCGAAUUUUCGGCGGAUACUUCAAAA | 0.000105 ± 1.9e-05 |
| AUAAAAGCGCCAGAACUACAGAAAUGUAGUUGACCAGGAGGAGGUUUAUCCAAUUUUAGGCGGAUGCCUCCAAA | < 1e-05 |
| AUAAAAGCGCCAGAACUACAGAAAUGUAGUUGACGAGGAGGAGGUUUAACGAAUUAUCGGCGGCUGCCUCCAAA | < 1e-05 |
| AUAAAAGCGCCAGAACUACAGAAAUGUAGUUGACGAGUAGGAGGUUUAUCGAUUUUUCGGCGGAUGCCUCCAAA | < 1e-05 |
| AUAAAUGCGCCAGAACUACAGAAAUGUAGUUGACGAGGAGGAGGUUUAUCGAACUUUCGGCGGAUGCCUCUAAA | 0.000136 ± 2.2e-05 |
| AUAAAAGCGCCACAACUACAGAAAUGUAGUUGACGAGAAGGACGUUUAUCGAAUUUUCGGUGGAUGCCUCCAAA | < 1e-05 |
| AUAAAAACGCCCGAACUACAGAAAUGUAGUUGACGAGGAGGAGGUUUAUCUAAUUUUCGGCGGAUGCCUCCAAA | < 1e-05 |
| AUAAAAACGCUAGAACUACAGAAAUGUAGUUGACGAGGAGGAGGUUUAUCGAAUUUUCGGUGGAGGCAUCCAAA | 0.000318 ± 0.0001 |
| AUAAAAGCGCCAGAACUACAGAAAUGUAGUUCACGAGGAGGAGGUUUAUCGAAAUUUCGGCGGAUGCGUCCAAA | 6.46e-05 ± 2e-05 |
| AUAAAAGUGCCAGAAAUACAGAAAUGUAGUUGACGAGGCGGCGGUUUAUCGAAUUUUCCGCGGAUGACUUCAAA | < 1e-05 |
| AUAAAAGCGCCCGAACUACAGAAAUGUAAUUGACGGGGAGGAGGUUUAUCGAAUUUUCGGCGGAUGCCUCCAAA | < 1e-05 |
| AUAAAAGCGCCAGAACUACAGAAAUGUAAUUGACGAGGAGGAGGUUUAGCGAAUUGUCGGCGGAUGCCUCCAAA | 3.31e-05 ± 1.3e-05 |
| AUAAAAGCGCCAGAACUACCGAAAUGUAGUUGACGAGGAGGAGUUUUAUCGAAUUUUCGGCGGAUGCCUCCAAA | 0.000286 ± 8.9e-05 |
